Measured values taken from paper PMC8350011, “Interactions between semaphorins and plexin–neuropilin receptor complexes in the membranes of live cells” (The Journal of Biological Chemistry, 2021).

Key:
Test in all cases: PIE-FCCS (pulsed-interleaved excitation fluorescence cross-correlation spectroscopy); single live Cos-7 cells co-expressing eGFP and mCherry fusions, peripheral membrane, no exogenous ligand; 85 to 1245 molecules/μm^2; fraction correlated (fc): median below 0.09 monomer, 0.09-0.17 dimer, above 0.17 higher oligomers (homotypic)
plexin A4 = target: T1, plexin A4 (human, UniProt Q9HCM2 24-1894); details: partners not purified
T1 construct: Two constructs (eGFP and mCherry fusions); The N1 vectors probably put the fluorescent protein at the C-terminus; also called plexin A4-eGFP; plexin A4-mCh; source: Cos-7, transiently transfected, in the membrane of live cells

[1] = target: the molecule itself
plexin A4ΔSema = target: T2, plexin A4ΔSema (human, UniProt Q9HCM2 24-1894, deletes residues 39 to 506); details: partners not purified
T2 construct: also called plexin A4ΔSema-eGFP; plexin A4ΔSema-mCh; source: Cos-7, transiently transfected, in the membrane of live cells
T2 sequence (looked up): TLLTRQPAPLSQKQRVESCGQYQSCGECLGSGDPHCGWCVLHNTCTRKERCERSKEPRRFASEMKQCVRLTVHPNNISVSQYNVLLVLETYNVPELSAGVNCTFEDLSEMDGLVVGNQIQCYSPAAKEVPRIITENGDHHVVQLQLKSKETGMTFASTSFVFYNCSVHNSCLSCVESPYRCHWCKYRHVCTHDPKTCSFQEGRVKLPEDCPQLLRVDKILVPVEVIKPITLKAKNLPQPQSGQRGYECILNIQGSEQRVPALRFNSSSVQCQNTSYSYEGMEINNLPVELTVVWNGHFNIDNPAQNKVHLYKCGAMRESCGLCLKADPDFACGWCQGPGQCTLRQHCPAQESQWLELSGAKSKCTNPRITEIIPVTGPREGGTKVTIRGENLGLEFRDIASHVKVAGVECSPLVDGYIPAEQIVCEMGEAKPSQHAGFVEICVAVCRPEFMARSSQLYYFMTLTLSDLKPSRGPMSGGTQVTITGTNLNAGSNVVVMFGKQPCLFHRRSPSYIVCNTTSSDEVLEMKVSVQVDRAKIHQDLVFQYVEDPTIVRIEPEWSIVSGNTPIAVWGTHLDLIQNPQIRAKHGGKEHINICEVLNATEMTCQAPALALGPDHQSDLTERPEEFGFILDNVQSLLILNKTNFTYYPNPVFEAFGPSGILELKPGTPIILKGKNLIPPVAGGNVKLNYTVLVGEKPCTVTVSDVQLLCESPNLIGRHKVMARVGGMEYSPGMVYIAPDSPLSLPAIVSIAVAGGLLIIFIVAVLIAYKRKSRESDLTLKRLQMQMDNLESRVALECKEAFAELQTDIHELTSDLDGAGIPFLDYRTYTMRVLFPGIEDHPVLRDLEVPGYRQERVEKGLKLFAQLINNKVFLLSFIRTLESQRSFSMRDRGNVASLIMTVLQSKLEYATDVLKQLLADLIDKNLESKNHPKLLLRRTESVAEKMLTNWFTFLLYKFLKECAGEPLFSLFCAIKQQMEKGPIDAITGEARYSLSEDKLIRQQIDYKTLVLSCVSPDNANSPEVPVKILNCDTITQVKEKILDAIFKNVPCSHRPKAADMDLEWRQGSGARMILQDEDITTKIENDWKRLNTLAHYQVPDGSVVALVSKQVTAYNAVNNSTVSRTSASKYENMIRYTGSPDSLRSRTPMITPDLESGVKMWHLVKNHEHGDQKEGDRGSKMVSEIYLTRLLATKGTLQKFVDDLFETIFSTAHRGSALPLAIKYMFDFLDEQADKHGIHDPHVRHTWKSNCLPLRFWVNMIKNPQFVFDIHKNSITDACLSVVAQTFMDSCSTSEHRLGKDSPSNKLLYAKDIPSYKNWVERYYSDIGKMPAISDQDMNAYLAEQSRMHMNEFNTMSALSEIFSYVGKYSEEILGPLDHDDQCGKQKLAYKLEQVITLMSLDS

B1: plexin A2 (receptor, human, UniProt O75051 35-1894, looked up)
chain: MPQFSTFHSENRDWTFNHLTVHQGTGAVYVGAINRVYKLTGNLTIQVAHKTGPEEDNKSCYPPLIVQPCSEVLTLTNNVNKLLIIDYSENRLLACGSLYQGVCKLLRLDDLFILVEPSHKKEHYLSSVNKTGTMYGVIVRSEGEDGKLFIGTAVDGKQDYFPTLSSRKLPRDPESSAMLDYELHSDFVSSLIKIPSDTLALVSHFDIFYIYGFASGGFVYFLTVQPETPEGVAINSAGDLFYTSRIVRLCKDDPKFHSYVSLPFGCTRAGVEYRLLQAAYLAKPGDSLAQAFNITSQDDVLFAIFSKGQKQYHHPPDDSALCAFPIRAINLQIKERLQSCYQGEGNLELNWLLGKDVQCTKAPVPIDDNFCGLDINQPLGGSTPVEGLTLYTTSRDRMTSVASYVYNGYSVVFVGTKSGKLKKIRADGPPHGGVQYEMVSVLKDGSPILRDMAFSIDQRYLYVMSERQVTRVPVESCEQYTTCGECLSSGDPHCGWCALHNMCSRRDKCQQAWEPNRFAASISQCVSLAVHPSSISVSEHSRLLSLVVSDAPDLSAGIACAFGNLTEVEGQVSGSQVICISPGPKDVPVIPLDQDWFGLELQLRSKETGKIFVSTEFKFYNCSAHQLCLSCVNSAFRCHWCKYRNLCTHDPTTCSFQEGRINISEDCPQLVPTEEILIPVGEVKPITLKARNLPQPQSGQRGYECVLNIQGAIHRVPALRFNSSSVQCQNSSYQYDGMDISNLAVDFAVVWNGNFIIDNPQDLKVHLYKCAAQRESCGLCLKADRKFECGWCSGERRCTLHQHCTSPSSPWLDWSSHNVKCSNPQITEILTVSGPPEGGTRVTIHGVNLGLDFSEIAHHVQVAGVPCTPLPGEYIIAEQIVCEMGHALVGTTSGPVRLCIGECKPEFMTKSHQQYTFVNPSVLSLNPIRGPESGGTMVTITGHYLGAGSSVAVYLGNQTCEFYGRSMSEIVCVSPPSSNGLGPVPVSVSVDRAHVDSNLQFEYIDDPRVQRIEPEWSIASGHTPLTITGFNLDVIQEPRIRVKFNGKESVNVCKVVNTTTLTCLAPSLTTDYRPGLDTVERPDEFGFVFNNVQSLLIYNDTKFIYYPNPTFELLSPTGVLDQKPGSPIILKGKNLCPPASGGAKLNYTVLIGETPCAVTVSETQLLCEPPNLTGQHKVMVHVGGMVFSPGSVSVISDSLLTLPAIVSIAAGGSLLLIIVIIVLIAYKRKSRENDLTLKRLQMQMDNLESRVALECKEAFAELQTDINELTSDLDRSGIPYLDYRTYAMRVLFPGIEDHPVLRELEVQGNGQQHVEKALKLFAQLINNKVFLLTFIRTLELQRSFSMRDRGNVASLIMTGLQGRLEYATDVLKQLLSDLIDKNLENKNHPKLLLRRTESVAEKMLTNWFAFLLHKFLKECAGEPLFMLYCAIKQQMEKGPIDAITGEARYSLSEDKLIRQQIEYKTLILNCVNPDNENSPEIPVKVLNCDTITQVKEKILDAVYKNVPYSQRPRAVDMDLEWRQGRIARVVLQDEDITTKIEGDWKRLNTLMHYQVSDRSVVALVPKQTSSYNIPASASISRTSISRYDSSFRYTGSPDSLRSRAPMITPDLESGVKVWHLVKNHDHGDQKEGDRGSKMVSEIYLTRLLATKGTLQKFVDDLFETLFSTVHRGSALPLAIKYMFDFLDEQADRHSIHDTDVRHTWKSNCLPLRFWVNVIKNPQFVFDIHKGSITDACLSVVAQTFMDSCSTSEHRLGKDSPSNKLLYAKDIPSYKSWVERYYADIAKLPAISDQDMNAYLAEQSRLHAVEFNMLSALNEIYSYVSKYSEELIGALEQDEQARRQRLAYKVEQLINAMSIES
notes: Two constructs (pEGFP-N1 and pmCh-N1, EcoR1 and Kpn1 sites); the N1 vectors probably put the fluorescent protein at the C-terminus; also called plexin A2-eGFP; plexin A2-mCh; source: Cos-7, transiently transfected, in the membrane of live cells
- median fraction correlated (fc) (plexin A4): 0.08
- median fraction correlated (fc) [1]: 0.09
- stoichiometry N [1]: 2
- median fraction correlated (fc) (plexin A4ΔSema): 0.23
